B1: CL-512870 (antibody, V domains shown)
VH: QVQLVESGGGVVQPGRSLRLSCEASGFTFSHYGMHWVRQAPGRGLEWVAIIWYDGSNTYYRDSVKGRFTISRDNSKDTLFLQMNSLRPDDTAVYYCARALYYDSGSLFDFWGQGTLVTVSS
VL: DIQMTQSPSTLSASVGDRVTITCRASQSISSWLAWYQQKPGKAPKLLIYKASSLETGVPSRFSGSGFGTEFTLSISSLQPDDFATYYCLQYNIYWTFGQGTKVEIK
B2: CL-513274 (antibody, V domains shown)
VH: QVQLVESGGGVVQPGRSLRVSCAASGFTFSNYGMYWVRQAPGKGLEWVALIWHDGSNKFYEDSVKGRFTISRDNSKNTLYLQMNSLRAEDTAVYYCARAGYFQGSGSFLDYWGQGTLVTVSS
VL: DIQMTQSPSTLSASVGDRVTITCRASQSISTWLAWYQQKPGKAPKLLIYKASSLESGVPSRFSGSGSGTEFTLTISSLQPDDFATYFCQQYSSYWTFGQGTKVEIK
B3: CL-513809 (antibody, V domains shown)
VH: QVQLVESGGGVVQPGRSLRLSCAASGFIFSNYGMYWVRQTPDKGLEWVALIWYDGNNKFYSDSVKGRFTVSRDNSKNTLYLQMNSLRDEDTALYYCARAGYFYGSGSSLDKWGQGTLVTVSS
VL: DIQMTQSPSTLSASVGDRVSITCRASQSISIWLAWYQQKPGKAPKLLIYKASSLESGVPSRFSGSGSGTEFTLTISSLQPDDFATYYCQQYNSYWTFGQGTKVEIK
B4: CL-513069 (antibody, V domains shown)
VH: QVQLVESGGGVVQPGKSLRLSCEASGFTFSNYGMHWVRQAPGKGLDWVAIIWHDGGNKFYADSVRGRFTISRDNSKNTLFLQMNSLRAEDSAVYYCARVFDFRDSCYTMDVWGQGTTVTVSS
VL: DIQMTQSPSTLSASVGDRVTITCRASQSISSWLAWYQQKPGKAPKLLIYKASSLESGVPSRFSGSGSGTEFSLTISSLQPDDFATYYCQQYTRYWTFGQGTRVEIQ
B5: CL-513462 (antibody, V domains shown)
VH: QVQLVESGGGVVQPGRSLRVSCAASGFTFSNYGMYWVRQAPGKGLEWVAVIWHDGTNKFYEDSVKGRFTISRDNSKNTLYLQMNSLRAEDTAVYYCARAGYFQGSGSFLDYWGQGTLVTVSS
VL: DIQMTQSPSTLSASVGDRVTITCRASQSISSWLAWYQQKPGKAPKLLIYKASSLESGVPSRFSGSGSGTEFTLTISSLQPDDFATYFCQQYSSYWTFGQGTKVEIK
B6: CL-513617 (antibody, V domains shown)
VH: QVQLVESGGGVVQPGRSLRLSCAASGFIFSNYGMYWVRQTPDKGLEWVALIWYDGGNKFYSDSVKGRFTVSRDNSKNTLYLQMNSLRDEDTALYYCARAGYFYGSGSSLDKWGQGTLVTVSS
VL: DIQMTQSPSTLSASVGDRVSITCRASQSISIWLAWYQQKPGKAPKLLIYKASSLESGVPSRFSGSGSGTEFSLTISSLQPDDFATYYCQQYNRYWTFGQGTKVEIK
B7: CL-514146 (antibody, V domains shown)
VH: QVQLVESGGGVVQPGRSLRLSCAVSGFTFSNSGMHWVRQAPGKGLEWVAIIWYDGNNKFYADSVKGRFTISRDNSKNTLYLQMNSLRAEDTSIYYCARAYPSGNYGDKYGMDVWGQGTTVTVSS
VL: DIQMTQSPSTLSASVGDRVTITCRASQSISSWLAWFQQKPGNAPKLLIYKASSLESGVPSRFSGSGSGTEFTLTINSLQPDDFATYYCQQYNSFWTFGQGTKVEIK
B8: CL-513780 (antibody, V domains shown)
VH: QVQLVESGGGVVQPGRSLRLSCTASGFIFSNYGMYWVRQAPGKGLDWVALIWYDGSNKYYVGSVKGRFTISRDNSKNTLYLQMNSLRAEDTAVYYCARAGKYSGSGSYLDSWGQGTLVTVSS
VL: DIQMTPSPSILSASVGDRVTITCRASQNISSWLAWYQQKPGKAPKLLIYKASSLESGVPSRFSGSGSGTEFTLTISSLQPDDFATYFCQQYYSYWTFGQGTKVEIK
B9: CL-513279 (antibody, V domains shown)
VH: QVQLVESGGGVVQPGRSLRLSCAASGFTFSNFGMHWVRQAPVKGLEWVALIWYDGSNKFYADSVQGRFTISRDNSKNILYLQMNSLRAEDTAVYYCAKVEARGVDYHSYGMDVWGQGTTVTVSS
VL: DIQMTQSPSTLSASVGDRVTITCRASQSISSWLAWYQQKPGKAPQLLIYKASSLESGVPSRFSGSGSGTEFTLTISSLQPDDFATYYCQQYKYYWTFGQGTKVEIK
B10: CL-512871 (antibody, V domains shown)
VH: QVLLVESGGGVVQPGRSLRLSCAASGFTFSNYGMHWVRQAPGKGLEWVALIRYDGINKFYADSVKGRFTISRDNSENTLYMQINSLRAEDTAMYYCAKAYNTSSDYYYGMDVWGQGTTVTVSS
VL: DIQMTQSPSTLSASVGDRVTITCRASQSISTWLAWYQQKPGKAPKLLIYKASRLESGVPSRFSGSGSGTEFTLTISSLQPDDLATYYCQQFNSYWTFGQGTKVEIR
B11: CL-513691 (antibody, V domains shown)
VH: QVQLVESGGDVVQTGRSLRLSCAASGFTFSNYGMHWVRQAPDKGLEWVAIIWYDGSNKFYADSVKGRFTISRDNSKNTLYLHIHSLRAEDTAVYYCARDDRGDSAGPYFVYWGQGTLVTVSS
VL: EIVMTQSPATLSVSPGERATLSCRASQSVSDNLAWYQQRPGQAPRLLIYGASIRATGIPARFGGSGSGTEFTLTISILQSADFAVYYCQQHDSWPWTFGQGTKVEIK
B12: CL-513808 (antibody, V domains shown)
VH: QVQLVESGGGVVQPGRSLRLSCAASGFTFSNYGMHWVRQAPGKGLEWVAIIWYDGSNKFYADSVKGRFTISRDNSKNTLYLQMNSLRAEDTAVYYCARDDRGHSYGPYFDFWGQGTLVTVSS
VL: EIVMTQSPATLSVSPGERATLSCRASQSVSSNLAWYQQKPGQAPRLLIYGASIRATGIPARFSGSGSGTEFTLTISILQSEDFAVYYCQQCNNWPWTFGQGTKVEIK
B13: CL-513094 (antibody, V domains shown)
VH: QVQLVESGGGVVQPGRSLRLSCAASGFTFSGSGMHWVRQAPGRGLEWVAIIWYDGSHKYYVDSVQGRFIISRDNSKNTLYLEMNNLRVEDTAVYYCVRAYPSGSSNDKYGMDVWGQGTTVTVSS
VL: not shown
B14: CL-513041 (antibody, V domains shown)
VH: QEHLVESGGGVVQPGRSLRLSCAASGFTFSNSGMHWVRQAPGKGLEWVAVIWYDGSNKFYADSVRGRFTISRDNSNNTLYLQMNSLRAEDTALYYCARDRLFSGSWNWFDPWGQGTLVTVSS
VL: EIVLTQSPATLSLSPGERATLSCRASQSVSTYLAWYQQKPGQAPRLLIYDASNRATGIPARFSGSGSGTDFTLTISSLEPEDFAVYYCQQRSNWFTFGGGTKVEIK
B15: CL-513083 (antibody, V domains shown)
VH: QVQLVESGGGVVQPGRSLRLSCAASGFTFSNYGMHWVRQAPGRGLEWVAIIWYDGSNKYYEDSVKGRFTISRDNSKNTLYLQMNSLRAEDTAVYYCARAQWLDQRHYHYTMDVWGQGTTVTVSS
VL: not shown
B16: CL-513701 (antibody, V domains shown)
VH: QVQLVESGGGVVQTGRSLRLSCTASGFIFSNYGMYWVRQAPGKGLEWVALIWYDGSNKYYVDSVKGRFTISRDNSKNTLYLQMNSLRAEDTAVYYCARAGKYSGSGSYLDSWGQGTLVTVSS
VL: DIQMTQSPSSVSASVGDRVTITCRASQGISSWLAWYQQKPGKAPKLLIYTASSLQSGVPSRFSGSGSGTDFTLTISSLQPDDFATYFCQQYSRYWTFGQGTKVEIK

Biological target: recombinant full-length PfCSP (Plasmodium falciparum circumsporozoite protein, strain NF54) (Plasmodium falciparum NF54, UniProt P19597)
Sequence (P19597 20-375): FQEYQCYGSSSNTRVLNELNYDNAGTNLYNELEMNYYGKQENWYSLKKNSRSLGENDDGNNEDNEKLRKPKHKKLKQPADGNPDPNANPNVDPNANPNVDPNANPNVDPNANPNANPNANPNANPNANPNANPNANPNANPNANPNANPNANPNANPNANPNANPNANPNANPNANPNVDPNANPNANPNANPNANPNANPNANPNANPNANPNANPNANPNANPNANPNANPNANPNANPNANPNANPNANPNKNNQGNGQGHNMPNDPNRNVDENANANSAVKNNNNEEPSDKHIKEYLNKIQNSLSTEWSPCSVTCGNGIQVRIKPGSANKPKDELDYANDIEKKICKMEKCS

Row | Binder | binding result
1 | B1 | binds
2 | B2 | binds
3 | B3 | binds
4 | B4 | binds
5 | B5 | binds
6 | B6 | binds
7 | B7 | binds
8 | B8 | binds
9 | B9 | binds
10 | B10 | binds
11 | B11 | binds
12 | B12 | binds
13 | B13 | binds
14 | B14 | binds
15 | B15 | binds
16 | B16 | binds
